Results as given in article PMC5612097, “Discovery of a microbial transglutaminase enabling highly site-specific labeling of proteins” (The Journal of Biological Chemistry, 2017).
Where no end group is shown, it is not given here. The star is where a group is joined. Cbz = O=C(OCc1ccccc1)*

Key:
KalbTG = biological target: T1, KalbTG (Kutzneria viridogrisea, UniProt W5WHY8); assay: peptide array transamidation, Cy5-streptavidin fluorescence; type: biochemical; details: 50 uM amine donor with 5-mer Gln peptides; 100 mM Tris-HCl, pH 8, 1 mM DTT, 37 °C, 45 min
T1 construct: gene KALB_7456; E. coli; predicted signal peptide removed; N-terminal 2x SlyD (E. coli) chaperone tag with factor Xa site (cut off for some applications), N-terminal MGGGSTTAQAAAVAAPTPR, C-terminal GGGS-His8

[1] = biological target: microbial transglutaminase (MTG) from Streptomyces mobaraensis, engineered enzyme from Zedira (Streptomyces mobaraensis) (UniProt P81453)
[2] = biological target: microbial transglutaminase from Kutzneria albida (KalbTG) (Kutzneria albida DSM 43870)

T1 sequence (W5WHY8 entry or part of it): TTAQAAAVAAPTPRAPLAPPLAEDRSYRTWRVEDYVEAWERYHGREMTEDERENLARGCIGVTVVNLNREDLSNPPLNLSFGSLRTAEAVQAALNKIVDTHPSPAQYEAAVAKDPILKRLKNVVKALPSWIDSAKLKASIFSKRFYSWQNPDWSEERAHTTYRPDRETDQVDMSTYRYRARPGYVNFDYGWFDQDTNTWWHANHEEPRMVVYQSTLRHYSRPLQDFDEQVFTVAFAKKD

| Molecule | peptide array transamidation, Cy5-streptavidin fluorescence (KalbTG) | Km in the GLDH-coupled transglutaminase activity assay (37 °C, peptide 0-1 mM, 1 mM cadaverine as amine donor) [1] | Km in the GLDH-coupled transglutaminase activity assay (37 °C, peptide 0-1 mM, 1 mM cadaverine as amine donor) [2] |
| --- | --- | --- | --- |
| NCCCCCNC(=O)CCCC[C@@H]1SC[C@@H]2NC(=O)N[C@@H]21 [N-(biotinyl)cadaverine] | N-(biotinyl)cadaverine (Zedira) was used as a substitute for a Lys substrate to biotinylate Gln peptides |  |  |
| Cbz-GGGYRYRQGGGG |  | 644 µM | 2150 µM |
| Cbz-GGGDYALQGGGG |  | 847 µM |  |
